Reference: paper doi:10.1101/2025.03.04.641353
Where two headings read alike, the source gives them in different places.

B1: Ni_apt (ssDNA)
DNA: AAAAAAAAAAGCAGCACAGAGGTCAGATGGTATCGAGCGCAGGGCCGCCTTTGTT
B2: R_apt (ssDNA)
DNA: AGCAGCACAGAGGTCAGATGGTATCGAGCGCAGGGCCGCCTTTGTT

How the values were obtained:
[1] = target: T1, Bovine serum albumin (BSA) (Bos taurus, UniProt P02769 25-607); assay: SYBR Green I fluorescence titration
[2] = target: T1, Bovine serum albumin (BSA); assay: SYBR Green I fluorescence titration; remark: listed apart in the source

T1 sequence (P02769 25-607): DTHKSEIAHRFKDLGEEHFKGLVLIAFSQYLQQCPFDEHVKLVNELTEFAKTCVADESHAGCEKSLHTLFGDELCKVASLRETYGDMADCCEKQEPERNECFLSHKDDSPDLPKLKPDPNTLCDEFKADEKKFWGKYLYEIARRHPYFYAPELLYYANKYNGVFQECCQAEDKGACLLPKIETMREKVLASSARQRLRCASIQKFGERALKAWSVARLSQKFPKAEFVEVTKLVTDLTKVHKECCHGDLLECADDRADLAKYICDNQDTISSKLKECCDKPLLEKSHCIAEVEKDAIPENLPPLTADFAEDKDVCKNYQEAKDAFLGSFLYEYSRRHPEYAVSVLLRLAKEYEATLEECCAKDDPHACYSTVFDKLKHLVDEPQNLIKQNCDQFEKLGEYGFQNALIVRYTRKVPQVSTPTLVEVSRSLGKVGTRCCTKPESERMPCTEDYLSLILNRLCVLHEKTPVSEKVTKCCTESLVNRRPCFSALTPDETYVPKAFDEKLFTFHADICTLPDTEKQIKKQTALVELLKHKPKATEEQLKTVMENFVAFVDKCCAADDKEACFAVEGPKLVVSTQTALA

| Binder | Kd [1] | Kd [2] |
| --- | --- | --- |
| B1 | 120 nM |  |
| B2 |  | 20 nM |
